Data set [1] concerns the molecule itself. Nature of the data set: equilibrium sedimentation (Pr) and size exclusion chromatography (Pr and Pfr); self-association. On the procedure: FIG. 8A: Apparent size of PhyB(PSM) was measured by size exclusion chromatography (SEC) as either Pr (red circle) or following saturating red light irradiation (mostly Pfr) (purple circle). The column was calibrated with Bio-Rad size-exclusion protein standards and blue dextran (open circles). The partition coefficient, Kₐᵥ, was calculated using the equation, Kₐᵥ=(Vₑ−V₀)/(Vₜ−V₀), where Vₑ, V₀, and Vₜ are the elution, void and total volumes, respectively. V₀ and Vₜ were measured using blue dextran and vitamin B12. FIG. 8B: Equilibrium sedimentation was used to measure the mass of PhyB(PSM) as Pr using two concentrations and three rotor speeds. Lines represent global fits of the data. The calculated ratio of the measured molecular weight to that calculated from the sequence is shown.
Equilibrium sedimentation was conducted at 20° C. in darkness with Beckmann XL-A analytical ultracentrifuge and PhyB dissolved as Pr in SAB. SEC was conducted at 20° C. by FPLC (0.2 ml/min) with a 0.5×20 cm analytical grade Superdex 200 column (GE) equilibrated with SAB and 50 μl of either Pr samples or samples continuously irradiated with red light (mostly Pfr).

Data set [2] concerns the molecule itself. As to the kind of experiment: X-ray crystallography (self-association in the crystal). The protocol:
Well ordered crystals were formed in solutions containing 15 mg/ml PhyB, 1.2 M MgSO₄, 4% glycerol, 1% poly(ethylene glycol) 3350, and 100 mM BisTris(HCl) (pH 5.5). Crystals were exchanged into 100 mM MgSO₄, 25% poly(ethylene glycol) 3350, 15% poly(ethylene glycol) 550 monomethyl ether, and 100 mM BisTris (pH 5.5), and flash cooled in liquid nitrogen. Final datasets were collected at the Life Sciences Collaborative Access Team at the Advanced Photon Source (Argonne, Ill.), and indexed, integrated, and scaled using HKL2000 (Otwinowski et al., Method Enzymol. 276-307-326 (1997)). Initial phases were calculated by PHASER (McCoy et al., J. Appl. Crystallogr 40:658-674 (2007)) using the PAS-GAF region of Syn-Cph1 as the search model (PDB 2VEA, (Essen et al., Proc. Natl. Acad. Sci. USA 105:14709-14714 (2008)). Manual model-building was conducted with COOT (Emlsey et al., Acta Crystallogr D Biol. Crystallogr 60:2126-2132 (2004)) and refined with PHENIX (McCoy et al., J. Appl. Crystallogr 40:658-674 (2007)) without real-space refinement and invoking non-crystallographic symmetry in torsion angle mode, and validated with MOLPROBITY (Chen et al., Acta Crystallogr D Biol. Crystallogr 66:12-21 (2010)). Superpositions were arranged with LSQKAB (Kabsch, Acta Crystallogr A 32:922-923 (1976)).

B1: Arabidopsis PhyB PSM (residues 1-624) assembled with PΦB (receptor, Arabidopsis thaliana, UniProt P14713 1-624, looked up)
chain: MVSGVGGSGGGRGGGRGGEEEPSSSHTPNNRRGGEQAQSSGTKSLRPRSNTESMSKAIQQYTVDARLHAVFEQSGESGKSFDYSQSLKTTTYGSSVPEQQITAYLSRIQRGGYIQPFGCMIAVDESSFRIIGYSENAREMLGIMPQSVPTLEKPEILAMGTDVRSLFTSSSSILLERAFVAREITLLNPVWIHSKNTGKPFYAILHRIDVGVVIDLEPARTEDPALSIAGAVQSQKLAVRAISQLQALPGGDIKLLCDTVVESVRDLTGYDRVMVYKFHEDEHGEVVAESKRDDLEPYIGLHYPATDIPQASRFLFKQNRVRMIVDCNATPVLVVQDDRLTQSMCLVGSTLRAPHGCHSQYMANMGSIASLAMAVIINGNEDDGSNVASGRSSMRLWGLVVCHHTSSRCIPFPLRYACEFLMQAFGLQLNMELQLALQMSEKRVLRTQTLLCDMLLRDSPAGIVTQSPSIMDLVKCDGAAFLYHGKYYPLGVAPSEVQIKDVVEWLLANHADSTGLSTDSLGDAGYPGAAALGDAVCGMAVAYITKRDFLFWFRSHTAKEIKWGGAKHHPEDKDDGQRMHPRSSFQAFLEVVKSRSQPWETAEMDAIHSLQLILRDSFKESEAA
modifications: phytochromobilin (PΦB) attached by a thioether linkage to Cys-357
notes: Tested for self-association in solution as Pr (equilibrium sedimentation, SEC) and as mostly Pfr after red light (SEC); also called full PSM fragment; full-length PSM; not shown: 6His tag: the PSM constructs carried N- or C-terminal 6His tags (the N-terminal one is TEV-cleavable and leaves Gly-His)
Consider B1, for which the binding result in data set [1] is recorded as “no binding”.

B2: Arabidopsis PhyB(90-624) biliprotein bearing a C-terminal SLHHHHHH tag, assembled with phytochromobilin (PΦB) (receptor, Arabidopsis thaliana)
chain: TTYGSSVPEQQITAYLSRIQRGGYIQPFGCMIAVDESSFRIIGYSENAREMLGIMPQSVPTLEKPEILAMGTDVRSLFTSSSSILLERAFVAREITLLNPVWIHSKNTGKPFYAILHRIDVGVVIDLEPARTEDPALSIAGAVQSQKLAVRAISQLQALPGGDIKLLCDTVVESVRDLTGYDRVMVYKFHEDEHGEVVAESKRDDLEPYIGLHYPATDIPQASRFLFKQNRVRMIVDCNATPVLVVQDDRLTQSMCLVGSTLRAPHGCHSQYMANMGSIASLAMAVIINGNEDDGSNVASGRSSMRLWGLVVCHHTSSRCIPFPLRYACEFLMQAFGLQLNMELQLALQMSEKRVLRTQTLLCDMLLRDSPAGIVTQSPSIMDLVKCDGAAFLYHGKYYPLGVAPSEVQIKDVVEWLLANHADSTGLSTDSLGDAGYPGAAALGDAVCGMAVAYITKRDFLFWFRSHTAKEIKWGGAKHHPEDKDDGQRMHPRSSFQAFLEVVKSRSQPWETAEMDAIHSLQLILRDSFKESEAASLHHHHHH
modifications: phytochromobilin (PΦB) attached by a thioether linkage to Cys-357
notes: Crystallized as Pr; Two subunits (A and B) form the crystal dimer; also called PDB 4OUR
Take B2: the binding result in data set [2] is listed as “binds”.
